From the RNAGym collection of RNA variant scans (doi:10.1101/gr.219683.116)

B1: mRNA-splicing (parent)
chain: AGUUGCUGCUGGGAGCUCCAGCACAGUGAAAUGGACAGAAGGGCAGAGCAA

Variants of: B1
Assay: exon inclusion enrichment index; higher = more inclusion; WT1 exon 5 minigene, HEK293

| Variant | exon inclusion enrichment index |
| --- | --- |
| C6A U7A C9A U10A A45C | 0.979 |
| C6A U7A C9A U10A A45U | 1.14 |
| C6A U7A C9A U10A A45G | 1.6 |
| C6A U7A C9A U10A | 0.801 |
| C6A U7A C9A U10A A23G C24U | 0.189 |
| C6A U7A C9A U10A A23G C24A | 1.85 |
| C6A U7A C9A U10A A23G C24G | 1.58 |
| C6A G8C C9U U10C | 1.43 |
| G5U U7G G8C C9U | 1.58 |
| C6A U7A C9A U10A A40C G41U | 0.431 |
| C6A U7A C9A U10A A40C G41C | 1.98 |
| C6A U7A C9A U10A A40C G41A | 0.218 |
| G5U G8U C9U U10C G11A | 0.133 |
| G5U G8U C9U U10C G11U | 0.279 |
| G5U G8U C9U U10C G11C | 0.932 |
| C6A U7A C9A U10A A29U A30U | 0.198 |
| C6A U7A C9A U10A A29U A30C | 0.665 |
| C6A U7A C9A U10A A29U A30G | 0.739 |
| C6A U7A C9A U10A A35U C36U | 0.00621 |
| C6A U7A C9A U10A A35U C36G | 0.054 |
| C6A U7A C9A U10A A35U C36A | 0.00157 |

| Variant | exon inclusion enrichment index |
| --- | --- |
| C6A U7A C9A U10A C22G A23G | 0.212 |
| C6A U7A C9A U10A C22G A23C | 0.321 |
| C6A U7A C9A U10A C22G A23U | 0.0793 |
| C6A U7A C9A U10A A35U | 0.119 |
| C6A U7A C9A U10A A35C | 0.237 |
| C6A U7A C9A U10A A35G | 0.217 |
| C6A U7A C9A U10A C18U C19G | 0.119 |
| C6A U7A C9A U10A C18U C19A | 0.046 |
| C6A U7A C9A U10A C18U C19U | 0.00807 |
| C6A U7A | 0.261 |
| G5U U7A C9U | 0.173 |
| C6A U7A C9A U10A A20C G21A | 0.223 |
| C6A U7A C9A U10A A20C G21U | 0.286 |
| C6A U7A C9A U10A A20C G21C | 0.209 |
| G5U G8U C9U G46C A47C | 0.234 |
| G5U G8U C9U G46C A47G | 0.306 |
| G5U G8U C9U G46C A47U | 0.15 |
| C6A U7A C9A U10A C24G A25U | 0.778 |
| C6A U7A C9A U10A C24G A25C | 2.12 |
| C6A U7A C9A U10A C24G A25G | 0.308 |
| C6A U7A C9A U10A C16G U17C | 0.22 |

| Variant | exon inclusion enrichment index |
| --- | --- |
| C6A U7A C9A U10A C16G U17G | 0.02 |
| C6A U7A C9A U10A C16G U17A | 0.533 |
| C6A U7A C9A U10A A47G G48A | 0.364 |
| C6A U7A C9A U10A A47G G48C | 0.251 |
| C6A U7A C9A U10A A47G G48U | 0.0862 |
| C6A U7A C9A U10A A31C U32A | 0.428 |
| C6A U7A C9A U10A A31C U32C | 1.71 |
| C6A U7A C9A U10A A31C U32G | 1.02 |
| G5U G8U C9U G48A | 0.314 |
| G5U G8U C9U G48C | 0.251 |
| G5U G8U C9U G48U | 0.22 |
| C6A U7A C9A U10A C22U A23C | 0.267 |
| C6A U7A C9A U10A C22U A23U | 0.226 |
| C6A U7A C9A U10A C22U A23G | 0.694 |
| C6A U7A C9A U10A A20U G21C | 0.712 |
| C6A U7A C9A U10A A20U G21U | 0.376 |
| C6A U7A C9A U10A A20U G21A | 0.432 |
| G5U U7C G8U C9U | 0.184 |
| C6A U7A C9A U10A A23C C24A | 0.907 |
| C6A U7A C9A U10A A23C C24U | 0.243 |
| C6A U7A C9A U10A A23C C24G | 1.83 |

| Variant | exon inclusion enrichment index |
| --- | --- |
| G5U G8U C9U U17C C18A | 0.0484 |
| G5U G8U C9U U17C C18U | 0.0755 |
| G5U G8U C9U U17C C18G | 0.151 |
| G5U U7A G8C C9U | 0.582 |
| G5U U7C C9A U10C | 2.66 |
| G5U U7C G8A C9U | 0.504 |
| G5U G8U C9U U32A G33A | 0.0443 |
| G5U G8U C9U U32A G33U | 0.0405 |
| G5U G8U C9U U32A G33C | 0.219 |
| C6A U7A C9A U10A A14U G15A | 0.217 |
| C6A U7A C9A U10A A14U G15C | 0.336 |
| C6A U7A C9A U10A A14U G15U | 0.295 |
| C6A U7A C9A U10A A40G G41A | 0.23 |
| C6A U7A C9A U10A A40G G41U | 0.576 |
| C6A U7A C9A U10A A40G G41C | 2.13 |
| C6A U7A C9A U10A C18A C19G | 0.0285 |
| C6A U7A C9A U10A C18A C19U | 0.0166 |
| C6A U7A C9A U10A C18A C19A | 0.0959 |
| C6A | 0.079 |
| C6A U7A C9A U10A C36A A37C | 0.81 |
